Tested on: MEFs
Assay: Stimulation of serum-starved MEFs with growth factors or serum (Ezh2, Ndy1, miR-101 levels)
Assay type: cell-based, mouse
Settings: serum-starved MEFs, 24 hours after stimulation
Procedure: MEFs were transfected with control siRNA and stimulated with serum (10%) for 1, 4, 12 and 18 hours. (upper) Nuclear extracts were probed with antibody specific for Ezh2 and for CREB, levels of which served as loading control. (lower) Ndy1 and Ezh2 mRNA levels were measured with real time RT-PCR; GAPDH mRNA levels were used as internal control. Data are expressed as mean±SD.
Serum starved MEFs were stimulated with each of FGF-2 (20 ng/ml), IGF-1 (20 ng/ml), PDGF (20 ng/ml), serum (10%), VEGF (20 ng/ml), EGF (20 ng/ml) or TNFα (50 ng/ml). Nuclear extracts were probed with antibody specific for Ezh2 and for CREB, levels of which served as loading control.
Data are expressed as mean±SD.
MEFs transfected with control siRNA were stimulated with FGF-2 for 1, 4, 12 or 18 hours. (upper) Nuclear extracts were probed with antibody specific for Ezh2. CREB levels served as loading control. (middle) Ndy1 and Ezh2 mRNA were measured with real time RT-PCR; GAPDH mRNA levels were used as internal control. Data are expressed as mean±SD. (lower) miR-101 levels were measured with real time RT-PCR; U6 small nuclear RNA levels were used as internal control. Data are expressed as mean±SD. […]

B1: EGF: growth factor, R&D systems (protein, UniProt P01133 23-1207, looked up)
Pro-epidermal growth factor: PQHWSCPEGTLAGNGNSTCVGPAPFLIFSHGNSIFRIDTEGTNYEQLVVDAGVSVIMDFHYNEKRIYWVDLERQLLQRVFLNGSRQERVCNIEKNVSGMAINWINEEVIWSNQQEGIITVTDMKGNNSHILLSALKYPANVAVDPVERFIFWSSEVAGSLYRADLDGVGVKALLETSEKITAVSLDVLDKRLFWIQYNREGSNSLICSCDYDGGSVHISKHPTQHNLFAMSLFGDRIFYSTWKMKTIWIANKHTGKDMVRINLHSSFVPLGELKVVHPLAQPKAEDDTWEPEQKLCKLRKGNCSSTVCGQDLQSHLCMCAEGYALSRDRKYCEDVNECAFWNHGCTLGCKNTPGSYYCTCPVGFVLLPDGKRCHQLVSCPRNVSECSHDCVLTSEGPLCFCPEGSVLERDGKTCSGCSSPDNGGCSQLCVPLSPVSWECDCFPGYDLQLDEKSCAASGPQPFLLFANSQDIRHMHFDGTDYGTLLSQQMGMVYALDHDPVENKIYFAHTALKWIERANMDGSQRERLIEEGVDVPEGLAVDWIGRRFYWTDRGKSLIGRSDLNGKRSKIITKENISQPRGIAVHPMAKRLFWTDTGINPRIESSSLQGLGRLVIASSDLIWPSGITIDFLTDKLYWCDAKQSVIEMANLDGSKRRRLTQNDVGHPFAVAVFEDYVWFSDWAMPSVMRVNKRTGKDRVRLQGSMLKPSSLVVVHPLAKPGADPCLYQNGGCEHICKKRLGTAWCSCREGFMKASDGKTCLALDGHQLLAGGEVDLKNQVTPLDILSKTRVSEDNITESQHMLVAEIMVSDQDDCAPVGCSMYARCISEGEDATCQCLKGFAGDGKLCSDIDECEMGVPVCPPASSKCINTEGGYVCRCSEGYQGDGIHCLDIDECQLGEHSCGENASCTNTEGGYTCMCAGRLSEPGLICPDSTPPPHLREDDHHYSVRNSDSECPLSHDGYCLHDGVCMYIEALDKYACNCVVGYIGERCQYRDLKWWELRHAGHGQQQKVIVVAVCVVVLVMLLLLSLWGAHYYRTQKLLSKNPKNPYEESSRDVRSRRPADTEDGMSSCPQPWFVVIKEHQDLKNGGQPVAGEDGQAADGSMQPTSWRQEPQLCGMGTEQGCWIPVSSDKGSCPQVMERSFHMPSYGTQTLEGGVEKPHSLLSANPLWQQRALDPPHQMELTQ
modifications: Pro-epidermal growth factor
notes: growth factor, R&D systems
- level at which Ezh2 expression is induced: at both the RNA and protein levels
- Ezh2 expression (20 ng/ml (serum 10%)): significantly upregulated
